Measured values taken from publication PMC8611336.

How the values were obtained:
[1] = target: SUVs of PM lipid composition; assay: microscale thermophoresis (MST); settings: value read at the highest lipid concentration, about 1600 µM; n = 3; parent: est. 105; read off a plot
[2] = target: SUVs of NE lipid composition; assay: microscale thermophoresis (MST); settings: value read at the highest lipid concentration, about 1600 µM; n = 3; parent: est. 88; read off a plot

AαH peptide (Apq12 58-68, …) L58D; F61R; I62N; F68N
response [1]: 35%
response [2]: 50%
